Measurements from patent US20250011430A1.

Biological target: human B7H3 ECD-His (human) (UniProt Q5ZPR3)
Experiment: ForteBio BLI, antibody on AHQ sensor, 60 nM antigen, 1:1 model

Kd: 0.773 nM
Substance: Enoblituzumab (antibody)
